Test results from article PMC2291454, “Functional characterisation of the TSC1–TSC2 complex to assess multiple TSC2 variants identified in single families affected by tuberous sclerosis complex” (BMC Medical Genetics, 2008).

Molecular target: T1, TSC1 (human, UniProt Q92574 1-1164)
T1 sequence (looked up): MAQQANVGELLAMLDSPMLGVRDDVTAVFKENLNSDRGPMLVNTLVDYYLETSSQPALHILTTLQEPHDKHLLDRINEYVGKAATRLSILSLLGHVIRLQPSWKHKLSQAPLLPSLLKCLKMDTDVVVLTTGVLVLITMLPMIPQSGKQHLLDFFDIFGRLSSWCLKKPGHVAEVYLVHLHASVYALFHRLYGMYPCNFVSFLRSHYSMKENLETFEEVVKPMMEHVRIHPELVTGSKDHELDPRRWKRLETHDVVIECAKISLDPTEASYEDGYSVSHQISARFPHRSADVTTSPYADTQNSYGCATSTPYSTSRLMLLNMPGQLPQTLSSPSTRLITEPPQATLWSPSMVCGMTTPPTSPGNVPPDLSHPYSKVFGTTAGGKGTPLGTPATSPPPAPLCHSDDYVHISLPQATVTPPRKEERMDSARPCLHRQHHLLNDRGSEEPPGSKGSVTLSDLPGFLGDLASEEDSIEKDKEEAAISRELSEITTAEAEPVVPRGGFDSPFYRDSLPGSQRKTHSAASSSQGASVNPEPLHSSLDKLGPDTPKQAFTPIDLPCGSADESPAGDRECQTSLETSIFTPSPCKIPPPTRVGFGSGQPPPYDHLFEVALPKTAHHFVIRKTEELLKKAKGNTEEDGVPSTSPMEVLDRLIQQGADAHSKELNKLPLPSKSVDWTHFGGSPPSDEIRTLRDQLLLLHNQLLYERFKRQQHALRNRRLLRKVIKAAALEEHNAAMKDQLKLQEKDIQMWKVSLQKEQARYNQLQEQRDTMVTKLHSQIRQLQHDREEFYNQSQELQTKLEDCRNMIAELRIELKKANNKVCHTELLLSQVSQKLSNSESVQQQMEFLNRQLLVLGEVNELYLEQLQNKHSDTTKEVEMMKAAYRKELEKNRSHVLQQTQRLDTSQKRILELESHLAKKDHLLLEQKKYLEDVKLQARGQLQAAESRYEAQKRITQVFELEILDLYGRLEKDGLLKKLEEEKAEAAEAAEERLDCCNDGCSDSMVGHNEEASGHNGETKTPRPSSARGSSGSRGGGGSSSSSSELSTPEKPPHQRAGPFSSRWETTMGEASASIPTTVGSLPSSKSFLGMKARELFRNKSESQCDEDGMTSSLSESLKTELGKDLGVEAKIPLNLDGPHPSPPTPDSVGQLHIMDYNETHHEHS
Assay: cell-based or functional assay

B1: wild-type TSC2 (natural protein)
chain: not shown
  in vitro rheb GAP activity of the immunoprecipitated TSC1–TSC2 complex: rheb-bound GDP/GTP ratio after 90 minutes: 1.4

B2: TSC2 I820del variant (natural protein)
chain: not shown
  in vitro rheb GAP activity of the immunoprecipitated TSC1–TSC2 variant complex: rheb-bound GDP/GTP ratio after 90 minutes: 0.9
